The values that follow come from PMC6252157 (Molecular neurobiology, 2018).

This assay concerns the target T1, adenosine A1 receptor fused to Renilla luciferase (A1R-Rluc) (UniProt P30542 1-326).
T1 sequence (looked up): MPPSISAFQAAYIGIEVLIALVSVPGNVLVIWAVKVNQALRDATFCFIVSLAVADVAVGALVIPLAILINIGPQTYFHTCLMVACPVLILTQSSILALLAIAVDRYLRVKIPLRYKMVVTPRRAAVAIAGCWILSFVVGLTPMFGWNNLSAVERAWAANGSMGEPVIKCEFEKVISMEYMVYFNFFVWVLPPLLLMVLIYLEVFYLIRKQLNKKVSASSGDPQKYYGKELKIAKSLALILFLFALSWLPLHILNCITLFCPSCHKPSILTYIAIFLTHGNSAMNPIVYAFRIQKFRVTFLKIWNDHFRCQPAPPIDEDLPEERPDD
Description: FRET or BRET. Background: Bioluminescence resonance energy transfer reports proximity on the nanometre scale.

B1: dopamine D1 receptor fused to YFP (D1R-YFP) (receptor, UniProt P21728 1-446, looked up)
chain: MRTLNTSAMDGTGLVVERDFSVRILTACFLSLLILSTLLGNTLVCAAVIRFRHLRSKVTNFFVISLAVSDLLVAVLVMPWKAVAEIAGFWPFGSFCNIWVAFDIMCSTASILNLCVISVDRYWAISSPFRYERKMTPKAAFILISVAWTLSVLISFIPVQLSWHKAKPTSPSDGNATSLAETIDNCDSSLSRTYAISSSVISFYIPVAIMIVTYTRIYRIAQKQIRRIAALERAAVHAKNCQTTTGNGKPVECSQPESSFKMSFKRETKVLKTLSVIMGVFVCCWLPFFILNCILPFCGSGETQPFCIDSNTFDVFVWFGWANSSLNPIIYAFNADFRKAFSTLLGCYRLCPATNNAIETVSINNNGAAMFSSHHEPRGSISKECNLVYLIPHAVGSSEDLKKEEAAGIARPLEKLSPALSVILDYDTDVSLEKIQPITQNGQHPT
Regarding B1, the BRET50 amounted to 2 ± 1 YFP/Rluc ratio.
